# Measurements from publication PMC4241985.
# Target: transmembrane domain of Thermus thermophilus MgtE (278-450) (Thermus thermophilus) (UniProt Q5SMG8)
# Assay: crystal structure
substance,measurement,value
transmembrane domain of Thermus thermophilus MgtE (278-450) (from UniProt Q5SMG8 278-450) (domain or fragment),stoichiometry N,2
